From the supplement of paper PMC9170038 come the findings set out here.

The series concerns MS2 coat protein. Put plainly: apparent KD of MS2 coat protein; designed switch direction (-1 OFF switch, 1 ON switch): 1; higher = weaker reporter binding. The essentials: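 Apparent KD, taken as the median over clusters for each design, was obtained by curve-fitting normalised cluster fluorescence. Designed RNA switches had been transcribed on Illumina chips by stalled E. coli RNA polymerase and titrated with SNAP-549-labelled MS2 coat protein, doubling from 0.7 or 1.5 nM to 3 µM.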

Setting [1] is: input ligand: microRNA oligo, concentration not stated.
The mark [2] stands for this setting: Eterna round: R95, input ligand: FMN 200 uM.
Where [3] appears, read: Eterna round: R95, input ligand: microRNA oligo, concentration not stated.
Where [4] appears, read: Eterna round: R95, input ligand: none.

For the sequence “AGCUAUUACGAAGGAUAUUGUGACAUGAGGAUCACCCAUGUCUUCAUGAUUUAUUGUGAUCACGUCGAGAAGGUUGUACUAACA [SameState NG2 #28] (Eterna round: R96, puzzle: Same State NG 2)”, the “apparent KD of MS2 coat protein” value runs as follows: (input ligand: FMN 200 uM) 50.5 nM; under setting [1], 56.3 nM; (input ligand: none) 57.6 nM.
As to “AGCUAUUAAUCAGGAUAUAGGGACAUGAGGAUCACCCAUGUAUAAAUGAUGAAAUGUGGUCACCUCUAGAAGGGAUUACUAACA [SameState NG2 #43] (Eterna round: R96, puzzle: Same State NG 2)”, the “apparent KD of MS2 coat protein” value is, setting by setting: (input ligand: FMN 200 uM) 42.7 nM; under setting [1], 29 nM; (input ligand: none) 40.4 nM.
Take “ACAUGAGAUUGAGGAUAUAUAGUACCUACAUGUGACAUGAGGAUCACCCAUGUGGUAAGUAUGACAUAGAAGGCAAAGAUAUGU [Equivalance 99 - Jieux - Same State NG 2] (Eterna round: R96, puzzle: Same State NG 2)”: the “apparent KD of MS2 coat protein” value by setting is: (input ligand: FMN 200 uM) 35 nM; under setting [1], 37.6 nM; (input ligand: none) 50.6 nM.
Consider “GGAGCCAAGGCAGGAUAUUCAUAUUAUAAACAUGAGGAUCACCCAUGUAGGGCCAGAAGGCCUUGGGAGAAGGGCCAUGGCUCG [Xeonanis - 13 mod16] (Eterna round: R96, puzzle: Same State NG 2)”, for which the “apparent KD of MS2 coat protein” value by setting is: (input ligand: FMN 200 uM) 20.2 nM; under setting [1], 53.8 nM; (input ligand: none) 71 nM.
For the sequence “AGAUCAUGACGAGGAUAUCCGACAUGAGGAUCACCCAUGUAUGUUGGAGGACGCGUACGUCCAAUGGAGAAGGCGUCGUGGUCA [JL SSNG2 1.04] (Eterna round: R96, puzzle: Same State NG 2)”, the “apparent KD of MS2 coat protein” value amounted to 13.6 nM (input ligand: FMN 200 uM), 11.8 nM under setting [1] and 14.9 nM (input ligand: none).
Consider “AGUCCAGCCUGAGCUGGACAAAAGCAUGUACAUGAGGAUCACCCAUGUCAUGUACAAGCUUUUUGCUCGUCUAAAAG [Mat - hsa-mir-208a - Mod of JL - D7] (puzzle: Sensor for hsa-mir-208a)”, for which the “apparent KD of MS2 coat protein” value runs as follows: under setting [2], 272 nM; under setting [3], 17.6 nM; under setting [4], 406 nM.
In the case of “UGUCCAGCCUGAGCUGGACAAAAGCAUGUACAUGAGGAUCACCCAUGUUCAUGUACAAGCUUUUUGCUCGUCUUACU [salish99_208a_r3_081] (Eterna round: R96, puzzle: Sensor for hsa-mir-208a)”, the “apparent KD of MS2 coat protein” value (input ligand: FMN 200 uM) amounted to 534 nM, the “apparent KD of MS2 coat protein” value under setting [1] was 12.9 nM and the “apparent KD of MS2 coat protein” value (input ligand: none) came out at 400 nM.
With “GGAAUAUGAUGUUACAUGAGGAUCACCCAUGUAGUAAUAACUAAGGAUAUCUGUUAAGAUAACUAAGAGAAGGUAGGAUCAUAA [AK SSNG3-V2-8.4] (Eterna round: R96, puzzle: Same State NG 3)”, the “apparent KD of MS2 coat protein” value was found to be 22.2 nM (input ligand: FMN 200 uM), 20.5 nM under setting [1] and 22.1 nM (input ligand: none).
With “GAAGAACAUGAGGAUCACCCAUGUAAGCGGAAGCUAGGAUAUGCGGGAAAGAAGAGAGAAGCAGAAGGAGUAGGAA [JR_SS1_Sub029] (puzzle: Same State 1)”, the “apparent KD of MS2 coat protein” value amounted to 29.6 nM under setting [2], 34.4 nM under setting [3] and 48.8 nM under setting [4].
With “GCUGGAACUCACAUGAGGAUCACCCAUGUUCCGGAAACGGCACAGGAUAUCUGUCCGAAAAGGUCAGAGAAGGGUGGAACCAGC [Fiskers NG3ss - 88] (Eterna round: R96, puzzle: Same State NG 3)”, the “apparent KD of MS2 coat protein” value was found to be 189 nM (input ligand: FMN 200 uM), 43.5 nM under setting [1] and 90.4 nM (input ligand: none).
As for “GGCAUACAUGAGGAUCACCCAUGUUCAACCUAGAUAGGAUAUGGGCCUCUUGUAUUAGGCCCAGAAGGAUCUGUAA [Regea] (puzzle: Same State 1)”, under setting [3], the “apparent KD of MS2 coat protein” value was determined as 86.4 nM.
As for “GAGUUUGAACUACAGGAUAUAUAGCAGAUGACAUGAGGAUCACCCAUGUAAGAGAAAGGAGGGAAAUAGAAGGGUAUGGGAGGUG [JR_SS2_Sub035] (puzzle: Same State 2)”, the “apparent KD of MS2 coat protein” value was found to be 33.7 nM under setting [2], 20.4 nM under setting [3] and 24.3 nM under setting [4].
Turning to “UGAAUAGUUACAGGAUAUGAGCCGUAAAUUGGGUCAGAAGGGUGGGUGUUUUGCGCUGUGUGUUACAUGAGGAUCACCCAUGUU [SameState NG1 #32] (Eterna round: R96, puzzle: Same State NG 1)”, the “apparent KD of MS2 coat protein” value is, setting by setting: (input ligand: FMN 200 uM) 206 nM; under setting [1], 86.7 nM; (input ligand: none) 137 nM.
Consider “AGUAGUUUAACAUGAGGAUCACCCAUGUAUGUAUAUGUAACCUAGGAUAUGGAGGUUUUAUUUAACCAGAAGGAGGAUUGUUUA [JR_SSNG3_Sub043] (Eterna round: R96, puzzle: Same State NG 3)”, for which the “apparent KD of MS2 coat protein” value (input ligand: FMN 200 uM) was 18.3 nM, the “apparent KD of MS2 coat protein” value under setting [1] is 15.8 nM and the “apparent KD of MS2 coat protein” value (input ligand: none) was determined as 20.7 nM.
On to “AGCUUUUAAUUAGGAUAUGGUCACAUGAGGAUCACCCAUGUAACGAUGAUACGAUGUGGUCAAGACUAGAAGGGAUCGCUAACA [SameState NG2 #70] (Eterna round: R96, puzzle: Same State NG 2)”, for which the “apparent KD of MS2 coat protein” value (input ligand: FMN 200 uM) amounted to 150 nM, the “apparent KD of MS2 coat protein” value under setting [1] was 82.9 nM and the “apparent KD of MS2 coat protein” value (input ligand: none) was 113 nM.
For the sequence “UUCACCUUUUAUAACAUGAGGAUCACCCAUGUAUAUUGUACGUAGGAUAUCGAUGUUAGUUUUUUCGAGAAGGACGAUGUAAGU [JR_SSND3_Sub049] (Eterna round: R96, puzzle: Same State NG 3)”, the “apparent KD of MS2 coat protein” value (input ligand: FMN 200 uM) was found to be 29.6 nM, the “apparent KD of MS2 coat protein” value under setting [1] amounted to 40.7 nM and the “apparent KD of MS2 coat protein” value (input ligand: none) is 53.9 nM.
Take “GUGGUCAGACAUGAGGAUCACCCAUGUGGAAUAAAUAACGUCAAGGAUAUAUAAUAUAGGAUAUAAUAGAAGGUGAGAUUGGUG (Eterna round: R96, puzzle: Same State NG 3)”: the “apparent KD of MS2 coat protein” value runs as follows: (input ligand: FMN 200 uM) 108 nM; under setting [1], 107 nM; (input ligand: none) 119 nM.
For “AUAAAUAAACAUGAGGAUCACCCAUGUGUUAUAUAAGCAAAUAAAUAAAUAAAUAAAUAAAUAAAUAAAUAAAUAAA [RNA Sequence] (puzzle: Sensor for hsa-mir-208a version 2)”, the “apparent KD of MS2 coat protein” value is, setting by setting: under setting [2], 25.5 nM; under setting [3], 26.1 nM; under setting [4], 29.2 nM.
Consider “ACAAGACAUGAGGAUCACCCAUGUAUAAAUUACACAGGAUAUCGGCAGGCAGCACCUGCACGAGAAGGGUGACUUC [Inbilera] (puzzle: Same State 1)”, for which the “apparent KD of MS2 coat protein” value stood at 193 nM under setting [2], 21.7 nM under setting [3] and 27.3 nM under setting [4].
For “GGUGCGAAAUAAGCCUACAUGAGGAUCACCCAUGUAUGUAGGCAGGAUAUCGUAUGCAAAGCAUACGAGAAGGGCUGACGCACC [Mat - Same State NG 3 - JL Mod - D51] (Eterna round: R96, puzzle: Same State NG 3)”, the “apparent KD of MS2 coat protein” value came to 32.5 nM (input ligand: FMN 200 uM), 55.9 nM under setting [1] and 75.4 nM (input ligand: none).
For “GUUACAUGAGGAUCACCCAUGUAUGUGUGGGAGUAAGUGUCUUAGGAUAUCUGUUAUUUAAUCUAAGAGAAGGAAGAUUGUUGU [JMF's solution 45] (Eterna round: R96, puzzle: Same State NG 3)”, the “apparent KD of MS2 coat protein” value amounted to 113 nM (input ligand: FMN 200 uM), 66.7 nM under setting [1] and 94.1 nM (input ligand: none).
Turning to “UUAAGCAACGGGCAGGAUAUGUAUUAAAAUACAUGAGGAUCACCCAUGUGCAGGUGUAACACCUGACAGAAGGGCCAAUCGGUGC [Soteed - 8] (puzzle: Same State 2)”, the “apparent KD of MS2 coat protein” value was determined as 39.5 nM under setting [2], 256 nM under setting [3] and 409 nM under setting [4].
For the sequence “UGGUACAUGGGAGGAUAUCCUCAGGAGACAUGAGGAUCACCCAUGUAUUAUAAGCCGAAAGGCAUGGAGAAGGCCCAUGUACCU [JL SSNG1 3.82] (Eterna round: R96, puzzle: Same State NG 2)”, the “apparent KD of MS2 coat protein” value (input ligand: FMN 200 uM) is 14.1 nM, the “apparent KD of MS2 coat protein” value under setting [1] turned out to be 112 nM and the “apparent KD of MS2 coat protein” value (input ligand: none) came out at 123 nM.
In the case of “GGUCCAGCCUGAGCUGGACAAAAGCGUGUACAUGAGGAUCACCCAUGUCAUGUACAAGCUUUUUGCUCGUCUUAAAA [JL mod - D87 - 6] (puzzle: Sensor for hsa-mir-208a)”, the “apparent KD of MS2 coat protein” value reads like this: under setting [2], 80.2 nM; under setting [3], 18.8 nM; under setting [4], 94.9 nM.
With “AGCUAUUAAUCAGGAUAUGGUGACAUGAGGAUCACCCAUGUAUAGAUGAUUAAAUGUGGUCUAUACCAGAAGGGAUUACUAACA [SameState NG2 #52] (Eterna round: R96, puzzle: Same State NG 2)”, the “apparent KD of MS2 coat protein” value runs as follows: (input ligand: FMN 200 uM) 55.5 nM; under setting [1], 247 nM; (input ligand: none) 356 nM.
For “AAACGGCCCAACGGAGGGCCACAUGAGGAUCACCCAUGUACAUAGGAUAUCACACCAACAAGGCGUGAGAAGGGUGAUUAAAAC [Xeatte] (Eterna round: R96, puzzle: Same State NG 3)” the same measures were 58.1 nM, 1120 nM and 747 nM.
“GUUACAUGAGGAUCACCCAUGUAUGUGUGGGAGUAAGUGUCUUAGGAUAUCUAUCAGUUAAUUUAAGAGAAGGAAGAUUGUUGU [JMF's solution 90] (Eterna round: R96, puzzle: Same State NG 3)”: the “apparent KD of MS2 coat protein” value reads like this: (input ligand: FMN 200 uM) 126 nM; under setting [1], 111 nM; (input ligand: none) 115 nM.
